The source of these data is paper PMC7609443, “Complement C1q Interacts With LRP1 Clusters II and IV Through a Site Close but Different From the Binding Site of Its C1r and C1s-Associated Proteases” (Frontiers in Immunology, 2020).

First the molecules themselves.
B1: Soluble LRP1 cluster II (domain or fragment, human)
chain: AIDAGSPQCQPGEFACANSRCIQERWKCDGDNDCLDNSDEAPALCHQHTCPSDRFKCENNRCIPNRWLCDGDNDCGNSEDESNATCSARTCPPNQFSCASGRCIPISWTCDLDDDCGDRSDESASCAYPTCFPLTQFTCNNGRCININWRCDNDNDCGDNSDEAGCSHSCSSTQFKCNSGRCIPEHWTCDGDNDCGDYSDETHANCTNQATRPPGGCHTDEFQCRLDGLCIPLRWRCDGDTDCMDSSDEKSCEGVTHVCDPSVKFGCKDSARCISKAWVCDGDNDCEDNSDEENCESLACRPPSHPCANNTSVCLPPDKLCDGNDDCGDGSDEGELC
notes: four amino acids naturally located in full-length LRP1 after the cleavage site of the signal peptide; numbers count on: the mature protein; introduced by the cloning process (BamHI site); LRP1 cluster II, 8 CR modules (CR3-10), human; Secreted with the LRP1 signal peptide, which is cleaved; Glycosylated: 50,372 Da by MALDI; also called CR3-10
B3: Soluble LRP1 cluster IV (domain or fragment)
chain: not shown
notes: four amino acids naturally located in full-length LRP1 after the cleavage site of the signal peptide; numbers count on: the mature protein; introduced by the cloning process (BamHI site); LRP1 cluster IV, 11 CR modules (CR21-31), human; Secreted with the LRP1 signal peptide, which is cleaved; Glycosylated: 62,528 Da by MALDI; also called CR21-31

Conditions in all cases: both partners purified
Experiment [1] deals with T1, C1q purified from human serum (human, UniProt P02745 23-245; P02746 28-253; P02747 29-245).
T1 construct: complement C1q, A chain, human, from serum; complement C1q, B chain, human, from serum; complement C1q, C chain, human, from serum; also called serum C1q; sC1q; source: purified from human serum; copies: 6 + 6 + 6
Put plainly: SPR; T200; serum C1q (14,000 RU), rC1q WT (11,000 RU) or rC1qABC (12,300 RU) immobilised on CM5; clusters II and IV injected in 50 mM Tris, 150 mM NaCl, 2 mM CaCl2, 0.05% P20, pH 7.4, 180 s at 30 µl/min; KD by steady state analysis. (SPR reads the build-up and loss of mass on a sensor chip optically.)

For experiment [2], the target named is T2, Recombinant C1q (wild type) (UniProt P02745 23-245; P02746 28-253; P02747 29-245).
T2 construct: complement C1q, A chain, recombinant; complement C1q, B chain, recombinant; complement C1q, C chain, recombinant; none of these is told here; also called rC1q WT; wild-type C1q; source: produced and purified as described in Bally et al. (16); copies: 6 + 6 + 6
The description is as above.

For experiment [3], the target named is T3, C1q mutant LysA59Ala/LysB61Ala/LysC58Ala (UniProt P02745 23-245; P02746 28-253; P02747 29-245, LysA59Ala | LysB61Ala | LysC58Ala).
T3 construct: complement C1q, A chain, recombinant; complement C1q, B chain, recombinant; complement C1q, C chain, recombinant; also called rC1qABC; rC1q ABC; source: produced and purified as described in Bally et al. (16); copies: 6 + 6 + 6
The experiment is described as above.

Experiment [4] addresses T1, C1q purified from human serum. Put plainly: SPR; T200; cluster II (1,230 RU) or cluster IV (1,270 RU) immobilised on CM5; serum C1q, CLR or GR injected in 50 mM Tris, 150 mM NaCl, 2 mM CaCl2, 0.05% P20, pH 7.4, 30 µl/min; KD from C1q 0.125-8 nM by steady state analysis; for competition C1q pre-incubated 15 min at 25°C with C1r2s2.
The target of the experiment “Soluble LRP1 cluster IV” is B3. Description: SPR; BIAcore 3000; full-length (ecto) LRP1 (7,400 RU) or clusters II (2,967 RU), III (3,460 RU), IV (3,396 RU) immobilised on CM5 by amine coupling; RAP 0.25-16 nM injected in 50 mM TEA, 150 mM NaCl, 1 mM CaCl2, 0.005% P20, pH 7.4, 20 µl/min; global fit, 1:1 Langmuir.
In experiment [5] the target is T4, Full-length LRP1 (soluble LRP1) (human, UniProt Q07954 20-4419).
T4 construct: LDL receptor-related protein 1 (LRP1, CD91), soluble form called ecto-LRP1; also called ecto-LRP1; ecto LRP1; source: produced and purified according to De Nardis et al. (15)
The description is as above.

The experiment “Soluble LRP1 cluster II” addresses B1. The description is as above.
For a further experiment, the target named is T5, Soluble LRP1 cluster III (human, UniProt Q07954 2522-2940).
T5 construct: four amino acids naturally located in full-length LRP1 after the cleavage site of the signal peptide; numbers count on: the mature protein; introduced by the cloning process (BamHI site); LRP1 cluster III, 10 CR modules (CR11-20), human; Secreted with the LRP1 signal peptide, which is cleaved; Glycosylated: 63,734 Da by MALDI; also called CR11-20
The description is as above.

Sequence of Soluble LRP1 cluster IV (Q07954 other isoform, or with tags, fused parts or gaps): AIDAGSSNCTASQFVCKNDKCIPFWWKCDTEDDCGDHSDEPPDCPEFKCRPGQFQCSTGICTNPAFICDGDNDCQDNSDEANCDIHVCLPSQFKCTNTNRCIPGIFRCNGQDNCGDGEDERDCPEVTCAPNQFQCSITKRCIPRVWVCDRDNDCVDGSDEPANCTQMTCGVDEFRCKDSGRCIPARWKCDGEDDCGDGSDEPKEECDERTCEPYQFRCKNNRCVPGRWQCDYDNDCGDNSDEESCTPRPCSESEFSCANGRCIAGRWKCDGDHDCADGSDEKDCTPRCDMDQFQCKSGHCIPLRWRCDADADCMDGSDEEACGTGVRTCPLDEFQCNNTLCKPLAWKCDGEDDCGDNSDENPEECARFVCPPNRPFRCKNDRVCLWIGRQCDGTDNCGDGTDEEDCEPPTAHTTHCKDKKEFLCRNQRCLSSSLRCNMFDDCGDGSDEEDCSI
T5 sequence (Q07954 other isoform, or with tags, fused parts or gaps): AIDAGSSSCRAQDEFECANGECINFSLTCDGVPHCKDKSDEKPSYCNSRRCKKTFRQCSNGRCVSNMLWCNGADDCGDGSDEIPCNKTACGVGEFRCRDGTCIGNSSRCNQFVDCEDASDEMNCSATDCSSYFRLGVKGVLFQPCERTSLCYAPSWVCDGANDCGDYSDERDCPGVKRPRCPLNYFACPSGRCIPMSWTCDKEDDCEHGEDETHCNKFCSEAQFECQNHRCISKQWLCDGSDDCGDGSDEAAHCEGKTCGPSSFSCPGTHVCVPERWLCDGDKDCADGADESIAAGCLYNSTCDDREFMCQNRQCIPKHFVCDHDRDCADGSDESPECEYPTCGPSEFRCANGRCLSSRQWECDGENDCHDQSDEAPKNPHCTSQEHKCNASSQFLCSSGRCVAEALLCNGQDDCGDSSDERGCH
T1 sequence (P02745 23-245, chain 1 of 3): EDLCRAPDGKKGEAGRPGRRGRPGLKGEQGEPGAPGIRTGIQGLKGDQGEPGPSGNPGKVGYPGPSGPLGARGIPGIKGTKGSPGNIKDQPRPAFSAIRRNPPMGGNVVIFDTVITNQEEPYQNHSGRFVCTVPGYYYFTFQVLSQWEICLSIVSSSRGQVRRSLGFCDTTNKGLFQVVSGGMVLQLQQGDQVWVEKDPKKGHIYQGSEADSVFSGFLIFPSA
T1 sequence (P02746 28-253, chain 2 of 3): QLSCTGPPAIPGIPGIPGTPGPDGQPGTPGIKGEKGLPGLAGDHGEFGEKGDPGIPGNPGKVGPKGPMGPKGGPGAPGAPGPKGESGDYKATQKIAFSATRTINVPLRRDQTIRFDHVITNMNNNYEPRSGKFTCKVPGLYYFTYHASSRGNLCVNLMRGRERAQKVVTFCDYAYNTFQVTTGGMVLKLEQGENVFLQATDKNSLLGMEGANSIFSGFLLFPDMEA
T1 sequence (P02747 29-245, chain 3 of 3): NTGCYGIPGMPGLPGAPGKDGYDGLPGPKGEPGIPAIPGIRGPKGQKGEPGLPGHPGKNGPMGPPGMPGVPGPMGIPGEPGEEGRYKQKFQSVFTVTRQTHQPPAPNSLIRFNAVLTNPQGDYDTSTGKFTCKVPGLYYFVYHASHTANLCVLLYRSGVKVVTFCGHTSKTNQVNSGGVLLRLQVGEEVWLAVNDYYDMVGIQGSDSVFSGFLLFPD
T3 sequence (P02745 other isoform, or with tags, fused parts or gaps with the stated changes, chain 1 of 3): as the sequence (P02745 23-245, chain 1 of 3) above, with K59A counted along it
T3 sequence (P02746 other isoform, or with tags, fused parts or gaps with the stated changes, chain 2 of 3): as the sequence (P02746 28-253, chain 2 of 3) above, with K61A counted along it
T3 sequence (P02747 other isoform, or with tags, fused parts or gaps with the stated changes, chain 3 of 3): as the sequence (P02747 29-245, chain 3 of 3) above, with K58A counted along it
T2 sequence (P02745 23-245, chain 1 of 3): as the sequence (P02745 23-245, chain 1 of 3) above
T2 sequence (P02746 28-253, chain 2 of 3): as the sequence (P02746 28-253, chain 2 of 3) above
T2 sequence (P02747 29-245, chain 3 of 3): as the sequence (P02747 29-245, chain 3 of 3) above

In general, Kd refers to the equilibrium constant for the complex coming apart. Consider B1, for which the Kd came out at 275 nM in experiment [1], 318 nM in experiment [2], 514 nM in experiment [3] and 3.49 nM in experiment [4].

B2: Receptor-associated protein (RAP) (natural protein, UniProt P30533 35-357, looked up)
chain: YSREKNQPKPSPKRESGEEFRMEKLNQLWEKAQRLHLPPVRLAELHADLKIQERDELAWKKLKLDGLDEDGEKEARLIRNLNVILAKYGLDGKKDARQVTSNSLSGTQEDGLDDPRLEKLWHKAKTSGKFSGEELDKLWREFLHHKEKVHEYNVLLETLSRTEEIHENVISPSDLSDIKGSVLHSRHTELKEKLRSINQGLDRLRRVSHQGYSTEAEFEEPRVIDLWDLAQSANLTDKELEAFREELKHFEAKIEKHNHYQKQLEIAHEKLRHAESVGDGERVSRSREKHALLEGRTKELGYTVKKHLQDLSGRISRARHNEL
notes: receptor-associated protein (RAP), chaperone of 39 kDa of LRP1; Y'; The printed 'Y' may be the first residue of mature RAP (surmise)
The koff is a measure of how fast the partners let go of each other. For orientation: kon means a measure of how fast the partners come together. Low values mean slower complex formation, high ones faster complex formation. As for B2, the Kd with Soluble LRP1 cluster IV amounted to 1.28 nM; in experiment [5], 0.76 nM; with Soluble LRP1 cluster II, 1.09 nM; with Soluble LRP1 cluster III, 1.06 nM. The koff was found to be 0.00147 s⁻¹ in the experiment with Soluble LRP1 cluster IV, 0.00105 s⁻¹ in experiment [5], 0.00196 s⁻¹ in the experiment with Soluble LRP1 cluster II and 0.00308 s⁻¹ in the experiment with Soluble LRP1 cluster III. The kon with Soluble LRP1 cluster IV amounted to 1.18e+06 M⁻¹ s⁻¹; in experiment [5], 1.41e+06 M⁻¹ s⁻¹; with Soluble LRP1 cluster II it was 2.2e+06 M⁻¹ s⁻¹; in the experiment with Soluble LRP1 cluster III, 2.95e+06 M⁻¹ s⁻¹.

Regarding B3, the Kd in experiment [1] stood at 158 nM; in experiment [2], 183 nM; in experiment [3], 222 nM; in experiment [4] it was 0.69 nM.
